{
  "source": "the MegaScale stability set (Tsuboyama et al. 2023)",
  "parents": {"B1": {"name": "EHEE_rd2_0601 (parent)", "chain": "TYTYKLTDEEASRRAEDEWRNRGYDVRVRNNNGTWEVEVR"}},
  "data": [
    {"variants_of": "B1", "experiment": "folding stability dG (cDNA display proteolysis); higher = more stable", "conditions": "PBS, room temperature", "units": {"folding stability dG": "kcal/mol"}, "values": [
      {"variant": "TYTYKLTDEEASRRAEDEWRNRGYDVRVRNNLGTWEVEVR", "note": "[N32L]", "folding stability dG": 0.77},
      {"variant": "TYTYKLTDEEASRRAEDEWRNRGYDVRVRNNIGTWEVEVR", "note": "[N32I]", "folding stability dG": -0.191},
      {"variant": "TYTYKLTDEEASRRAEDEWRNRGYDVRVRNNHGTWEVEVR", "note": "[N32H]", "folding stability dG": 1.07},
      {"variant": "TYTYKLTDEEASRRAEDEWRNRGYDVRVRNNMGTWEVEVR", "note": "[N32M]", "folding stability dG": 1.08},
      {"variant": "TYTYKLTDEEASRRAEDEWRNRGYDVRVRNNFGTWEVEVR", "note": "[N32F]", "folding stability dG": 0.778},
      {"variant": "TYTYKLTDEEASRRAEDEWRNRGYDVRVRNNEGTWEVEVR", "note": "[N32E]", "folding stability dG": 1.15},
      {"variant": "TYTYKLTDEEASRRAEDEWRNRGYDVRVRNNKGTWEVEVR", "note": "[N32K]", "folding stability dG": 0.989},
      {"variant": "TYTYKLTDEEASRRAEDEWRNRGYDVRVRNNAGTWEVEVR", "note": "[N32A]", "folding stability dG": 1.12},
      {"variant": "TYTYKLTDEEASRRAEDEWRNRGYDVRVRNNGGTWEVEVR", "note": "[N32G]", "folding stability dG": 1.39},
      {"variant": "TYTYKLTDEEASRRAEDEWRNRGYDVRVRNNDGTWEVEVR", "note": "[N32D]", "folding stability dG": 1.16},
      {"variant": "TYTYKLTDEEASRRAEDEWRNRGYDVRVRVNNGTWEVEVR", "note": "[N30V]", "folding stability dG": 1.43},
      {"variant": "TYTYKLTDEEASRRAEDEWRNRGYDVRVRINNGTWEVEVR", "note": "[N30I]", "folding stability dG": 1.35},
      {"variant": "TYTYKLTDEEASRRAEDEWRNRGYDVRVRKNNGTWEVEVR", "note": "[N30K]", "folding stability dG": 1.34},
      {"variant": "TYTYKLTDEEASRRAEDEWRNRGYDVRVRYNNGTWEVEVR", "note": "[N30Y]", "folding stability dG": 2.33},
      {"variant": "TYTYKLTDEEASRRAEDEWRNRGYDVRVRANNGTWEVEVR", "note": "[N30A]", "folding stability dG": 1.03},
      {"variant": "TYTYKLTDEEASRRAEDEWRNRGYDVRVRDNNGTWEVEVR", "note": "[N30D]", "folding stability dG": 1},
      {"variant": "TYTYKLTDEEASRRAEDEWRNRGYDVRVRHNNGTWEVEVR", "note": "[N30H]", "folding stability dG": 1.61},
      {"variant": "TYTYKLTDEEASRRAEDEWRNRGYDVRVRPNNGTWEVEVR", "note": "[N30P]", "folding stability dG": 0.863},
      {"variant": "TYTYKLTDEEASRRAEDEWRNRGYDVRVRENNGTWEVEVR", "note": "[N30E]", "folding stability dG": 1.7},
      {"variant": "TYTYKLTDEEASRRAEDEWRNRGYDVRVRLNNGTWEVEVR", "note": "[N30L]", "folding stability dG": 1.6},
      {"variant": "TYTYKLTDEEASRRAEDEWRNRGYDVRVRQNNGTWEVEVR", "note": "[N30Q]", "folding stability dG": 1.51},
      {"variant": "TYTYKLTDEEASRRAEDEWRNRGYDVRVRMNNGTWEVEVR", "note": "[N30M]", "folding stability dG": 1.4},
      {"variant": "TYTYKLTDEEASRRAEDEWRNRGYDVRVRFNNGTWEVEVR", "note": "[N30F]", "folding stability dG": 2.29},
      {"variant": "TYTYKLTDEEASRRAEDEWRNRGYDVRVRSNNGTWEVEVR", "note": "[N30S]", "folding stability dG": 1.1},
      {"variant": "TYTYKLTDEEASRRAEDEWRNRGYDVRVRTNNGTWEVEVR", "note": "[N30T]", "folding stability dG": 0.81},
      {"variant": "TYTYKLTDEEASRRAEDEWRNRGYDVRVRWNNGTWEVEVR", "note": "[N30W]", "folding stability dG": 1.8},
      {"variant": "TYTYKLTDEEASRRAEDEWRNRGYDVRVRGNNGTWEVEVR", "note": "[N30G]", "folding stability dG": 0.639},
      {"variant": "TYTYKLTDEEASRRAEDEWRNRGYDVRVRRNNGTWEVEVR", "note": "[N30R]", "folding stability dG": 1.23},
      {"variant": "TYTYKLTDEEASRRAEDEWRNRGWDVRVRNNNGTWEVEVR", "note": "[Y24W]", "folding stability dG": 0.791},
      {"variant": "TYTYKLTDEEASRRAEDEWRNRGYDVEVRNNNGTWEVEVR", "note": "[R27E]", "folding stability dG": 1.6},
      {"variant": "TYTYKLTDEEASRRAEDEWRNRGYDVLVRNNNGTWEVEVR", "note": "[R27L]", "folding stability dG": 1.68},
      {"variant": "TYTYKLTDEEASRRAEDEWRNRGYDVVVRNNNGTWEVEVR", "note": "[R27V]", "folding stability dG": 2.05},
      {"variant": "TYTYKLTDEEASRRAEDEWRNRGYDVSVRNNNGTWEVEVR", "note": "[R27S]", "folding stability dG": 1.69},
      {"variant": "TYTYKLTDEEASRRAEDEWRNRGYDVGVRNNNGTWEVEVR", "note": "[R27G]", "folding stability dG": 0.575},
      {"variant": "TYTYKLTDEEASRRAEDEWRNRGYDVPVRNNNGTWEVEVR", "note": "[R27P]", "folding stability dG": -0.472},
      {"variant": "TYTYKLTDEEASRRAEDEWRNRGYDVYVRNNNGTWEVEVR", "note": "[R27Y]", "folding stability dG": 1.52},
      {"variant": "TYTYKLTDEEASRRAEDEWRNRGYDVAVRNNNGTWEVEVR", "note": "[R27A]", "folding stability dG": 1.42},
      {"variant": "TYTYKLTDEEASRRAEDEWRNRGYDVDVRNNNGTWEVEVR", "note": "[R27D]", "folding stability dG": 1.07},
      {"variant": "TYTYKLTDEEASRRAEDEWRNRGYDVHVRNNNGTWEVEVR", "note": "[R27H]", "folding stability dG": 1.56},
      {"variant": "TYTYKLTDEEASRRAEDEWRNRGYDVNVRNNNGTWEVEVR", "note": "[R27N]", "folding stability dG": 1.36},
      {"variant": "TYTYKLTDEEASRRAEDEWRNRGYDVQVRNNNGTWEVEVR", "note": "[R27Q]", "folding stability dG": 1.56},
      {"variant": "TYTYKLTDEEASRRAEDEWRNRGYDVFVRNNNGTWEVEVR", "note": "[R27F]", "folding stability dG": 1.67},
      {"variant": "TYTYKLTDEEASRRAEDEWRNRGYDVMVRNNNGTWEVEVR", "note": "[R27M]", "folding stability dG": 1.49},
      {"variant": "TYTYKLTDEEASRRAEDEWRNRGYDVCVRNNNGTWEVEVR", "note": "[R27C]", "folding stability dG": 1.69},
      {"variant": "TYTYKLTDEEASRRAEDEWRNRGYDVTVRNNNGTWEVEVR", "note": "[R27T]", "folding stability dG": 2.03},
      {"variant": "TYTYKLTDEEASRRAEDEWRNRGYDVKVRNNNGTWEVEVR", "note": "[R27K]", "folding stability dG": 1.6},
      {"variant": "TYTYKLTDEEASRRAEDEWRNRGYDVIVRNNNGTWEVEVR", "note": "[R27I]", "folding stability dG": 2.09},
      {"variant": "TYTYKLTDEEASRRAEDEWRNRGYDVWVRNNNGTWEVEVR", "note": "[R27W]", "folding stability dG": 1.27},
      {"variant": "TYTYKLTDEEASRRAEDEWRNRGYDVRVYNNNGTWEVEVR", "note": "[R29Y]", "folding stability dG": 1.74},
      {"variant": "TYTYKLTDEEASRRAEDEWRNRGYDVRVANNNGTWEVEVR", "note": "[R29A]", "folding stability dG": 0.917},
      {"variant": "TYTYKLTDEEASRRAEDEWRNRGYDVRVINNNGTWEVEVR", "note": "[R29I]", "folding stability dG": 1.78},
      {"variant": "TYTYKLTDEEASRRAEDEWRNRGYDVRVENNNGTWEVEVR", "note": "[R29E]", "folding stability dG": 0.726},
      {"variant": "TYTYKLTDEEASRRAEDEWRNRGYDVRVLNNNGTWEVEVR", "note": "[R29L]", "folding stability dG": 1.4},
      {"variant": "TYTYKLTDEEASRRAEDEWRNRGYDVRVCNNNGTWEVEVR", "note": "[R29C]", "folding stability dG": 1.06},
      {"variant": "TYTYKLTDEEASRRAEDEWRNRGYDVRVSNNNGTWEVEVR", "note": "[R29S]", "folding stability dG": 1.55},
      {"variant": "TYTYKLTDEEASRRAEDEWRNRGYDVRVFNNNGTWEVEVR", "note": "[R29F]", "folding stability dG": 1.63},
      {"variant": "TYTYKLTDEEASRRAEDEWRNRGYDVRVGNNNGTWEVEVR", "note": "[R29G]", "folding stability dG": 0.418},
      {"variant": "TYTYKLTDEEASRRAEDEWRNRGYDVRVQNNNGTWEVEVR", "note": "[R29Q]", "folding stability dG": 1.18},
      {"variant": "TYTYKLTDEEASRRAEDEWRNRGYDVRVKNNNGTWEVEVR", "note": "[R29K]", "folding stability dG": 1.35},
      {"variant": "TYTYKLTDEEASRRAEDEWRNRGYDVRVTNNNGTWEVEVR", "note": "[R29T]", "folding stability dG": 1.86},
      {"variant": "TYTYKLTDEEASRRAEDEWRNRGYDVRVMNNNGTWEVEVR", "note": "[R29M]", "folding stability dG": 1.26},
      {"variant": "TYTYKLTDEEASRRAEDEWRNRGYDVRVPNNNGTWEVEVR", "note": "[R29P]", "folding stability dG": -0.71}
    ]}
  ]
}
